Substitutions are numbered along the chain they refer to.
Tests used:
OMP-LU102 lung tumor = assay: OMP-LU102 NSCLC xenograft growth; assay type: in vivo, NOD-SCID mice; conditions: antibody 25 mg/kg once a week, carboplatin 50 mg/kg once a week, FIG. 11A
Procedure: OMP-LU102 is a patient-derived non-small cell lung cancer (NSCLC) xenograft that was selected for testing based on a high level of RSPO3 expression in microarray data. OMP-LU102 lung tumor cells (1×10^5) were injected into NOD-SCID mice. […] Carboplatin was dosed at 50 mg/kg once a week.

[1] = system: gene sets characteristic of normal stem cells or cancer stem cells; assay: Microarray gene set enrichment analysis of treated OMP-LU102 tumors; assay type: in vivo, NOD-SCID mice; conditions: RNA from OMP-LU102 tumors after treatment, FIG. 11B
Procedure: RNA was prepared from tumors from each of the four experimental groups following the treatment. Gene expression was characterized by microarray analysis.

[2] = system: OMP-LU45 non-small cell lung tumors; assay: OMP-LU45 lung tumor xenograft growth; assay type: in vivo, NOD/SCID mice; conditions: 25 mg/kg once a week intraperitoneal, vs control antibody, FIG. 7A
Procedure: In OMP-LU45 non-small cell lung tumors, it has been observed that CD201^+ cells are more tumorigenic than CD201^− cells. […] Dissociated and sorted OMP-LU45 CD44^+CD201^+ lung tumor cells (5×10^4 cells) were injected into 6-8 week old NOD/SCID mice. Tumors were allowed to grow for 38 days until they reached an average volume of 140 mm^3. The mice were randomized (n=10 per group) and treated with anti-RSPO3 antibody 131R002 or a control antibody. […] Data are expressed as mean±S.E.M.

[3] = system: RSPO3-induced β-catenin signaling; assay: TOPflash 6xTCF-luciferase reporter assay in HEK-293 cells with WNT3a and RSPO3; assay type: cell-based, human
Procedure: HEK-293 cells were transfected with a 6×TCF-luciferase reporter vector (TOPflash, Millipore, Billerica, Mass.). After 24-48 hrs, the transfected HEK-293 cells were incubated with a combination of WNT3a (5 ng/ml) and human RSPO3 (10 ng/ml, R&D BioSystems, Minneapolis, Minn.) in the presence of anti-RSPO3 antibodies 131R002 and 131R003. Antibodies 131R002 and 131R003 were added to the cells in 4-fold serial dilutions from 20 μg/ml to 0.02 μg/ml. As controls, cells were incubated with a combination of WNT3a and RSPO3, WNT3a only, RSPO3 only, or with no addition. The cells were incubated for 16 hours and luciferase activity was measured using Steady-Glo® Luciferase Assay System according to the manufacturer's instructions (Promega, Madison, Wis.).
HEK-293 cells were transfected with a 6×TCF-luciferase reporter vector (TOPflash, Millipore, Billerica, Mass.). After 24-48 hrs, the transfected HEK-293 cells were incubated with a combination of WNT3a and human RSPO3 in the presence of anti-RSPO3 antibodies 131R003, 131R003 CDR1 variant and 131R003 CDR3 variant. 131R003, 131R003 CDR1 variant, and 131R003 CDR3 variant were added to the cells in 5-fold serial dilutions from 20 μg/ml to 0.006 μg/ml. As controls, cells were incubated with a combination of WNT3a and RSPO3, WNT3a only, RSPO3 only, a control antibody, or with no addition. The cells were incubated for 16 hours and luciferase activity was measured using Steady-Glo® Luciferase Assay System according to the manufacturer's instructions (Promega, Madison, Wis.).
HEK-293 cells were transfected with a 6×TCF-luciferase reporter vector (TOPflash, Millipore, Billerica, Mass.). After 24-48 hrs, the transfected HEK-293 cells were incubated with a combination of WNT3a conditioned medium (5 ng/ml) and human RSPO3 (10 ng/ml, R&D BioSystems) in the presence of anti-RSPO3 antibodies 131R002, 131R006B, or 131R007. Antibodies 131R002, 131R006 or 131R007 were added to the cells in 5-fold serial dilutions from 20 μg/ml to 0.0064 μg/ml. As controls, cells were incubated with WNT3a conditioned medium alone, a combination of WNT3a conditioned medium and human RSPO3, or with no addition to cells. The cells were incubated for 16 hours and luciferase activity was measured using Steady-Glo® Luciferase Assay System according to the manufacturer's instructions (Promega, Madison, Wis.).
HEK-293 cells were transfected with a 6×TCF-luciferase reporter vector (TOPflash, Millipore, Billerica, Mass.). […] The cells were incubated for 16 hours and luciferase activity was measured using Steady-Glo® Luciferase Assay System according to the manufacturer's instructions (Promega, Madison, Wis.).

OMP-LU25 lung tumor = OMP-LU25 lung tumor xenograft growth; assay type: in vivo, NOD/SCID mice; conditions: 25 mg/kg once a week intraperitoneal, vs control antibody, FIG. 7B
Procedure: In a study with a second lung tumor, dissociated OMP-LU25 lung tumor cells (5×10^4 cells) were injected into 6-8 week old NOD/SCID mice. Tumors were allowed to grow for 48 days until they reached an average volume of 110 mm^3. The mice were randomized (n=9 per group) and treated with anti-RSPO3 antibody 131R002 or a control antibody. […] Data are expressed as mean±S.E.M.
OMP-LU25 tumor cells (5×10^4) were injected into NOD-SCID mice. Tumors were allowed to grow for 33 days until they reached an average volume of 120 mm^3. Tumor-bearing mice were randomized into 4 groups (n=9 per group). Tumor-bearing mice were treated with either control antibody, anti-RSPO3 antibody 131R008, paclitaxel, or the combination of anti-RSPO3 antibody 131R008 and paclitaxel. Antibodies were dosed weekly at 20 mg/kg. Paclitaxel was dosed weekly at 15 mg/kg.

binding of RSPO3 to LGR5 = target: T1, binding of RSPO3 to LGR5 (Homo sapiens, UniProt Q9BXY4); assay: FACS inhibition of RSPO3-biotin binding to LGR5-expressing HEK-293T cells; conditions: PE-streptavidin, flow cytometry, FIG. 9
T1 construct: expressed in transfected cells; host or cells: HEK-293T
T1 sequence (Q9BXY4 22-272): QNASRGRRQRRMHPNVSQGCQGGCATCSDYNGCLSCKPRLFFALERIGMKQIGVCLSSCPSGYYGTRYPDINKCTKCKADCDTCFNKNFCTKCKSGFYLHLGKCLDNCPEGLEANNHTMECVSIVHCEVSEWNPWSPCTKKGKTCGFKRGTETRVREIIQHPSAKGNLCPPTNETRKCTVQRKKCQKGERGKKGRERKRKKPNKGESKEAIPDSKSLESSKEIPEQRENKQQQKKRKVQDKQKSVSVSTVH
Procedure: HEK-293T cells were transfected with a cDNA expression vector that encoded the extracellular domain of human LGR5 (FLAG-LGR5-CD4TM-GFP). Transfected cells were incubated with recombinant RSPO3-biotin fusion protein in the presence of anti-RSPO3 antibodies 131R006B or 131R007. Cells were incubated without antibody as a control. Cells were washed in PBS and binding of RSPO3 to LGR5-expressing transfected cells was determined by addition of PE-conjugated streptavidin and analysis by flow cytometry.

human RSPO3 = target: T2, human RSPO3 (Homo sapiens, UniProt Q9BXY4); assay: Biacore 2000 affinity, antibody captured by anti-human IgG, RSPO3 injected (Example 10); assay type: binding; conditions: human RSPO3 300 nM to 37.5 nM over captured antibody, Table 4
T2 construct: purchased R&D Systems
T2 sequence (Q9BXY4 22-272): T1 sequence (Q9BXY4 22-272)
Procedure: The method used was different than described in Example 3. A goat anti-human IgG antibody was coupled to a carboxymethyl-dextran (CM5) SPR chip using standard amine-based chemistry (NHS/EDC) and blocked with ethanolamine. Antibodies (purified antibody or culture supernatant) were diluted to a concentration of 10 μg/ml in HBS-P-BSA (0.01M HEPES pH7.4, 0.15M NaCl, 0.005% v/v Polysorbate 20, 100 ug/ml BSA) and captured onto the chip via the anti-human IgG antibody. Human RSPO3 (R&D Systems) was serially diluted 2-fold from 300 nM to 37.5 nM in HBS-P-BSA and injected sequentially over the captured anti-RSPO3 antibodies. RSPO3 association and dissociation was measured at each concentration. After each antigen injection 5 μl of 100 mM H3P04 was injected to remove the antigen-antibody complex and a subsequent injection performed. Kinetic data were collected over time and were fit using the simultaneous global fit equation to yield affinity constants (KD values) for each antibody (Table 4).

B1: 131R002: anti-RSPO3 antibody from a mammalian cell antibody library; heavy chain variable region SEQ ID NO:15, light chain variable region SEQ ID NO:17 (antibody, V domains shown)
VH: QVQLQESGPELVKPGASVKISCKASGYTFTDYSIHWVKQNHGKSLDWIGYIYPSNGDSGYNQKFKNRATLTVDTSSSTAYLEVRRLTFEDSAVYYCATYFANYFDYWGQGTTLTVSSAST
VL: DIVLTQSPASLAVSLGQRATISCKASQSVDYDGDSYMNWYQQKPGQPPKLLIYAASNLESGIPARFSGSGSGTDFTLNIHPVEEEDAATYYCQQSNEDPLTFGAGTKLELKR
modifications: 131R002 Heavy chain variable region; 131R002/131R003 Light chain variable region
OMP-LU102 lung tumor growth (OMP-LU102 lung tumor): inhibited OMP-LU102 lung tumor growth as a single agent | expression of gene sets characteristic of normal stem cells or cancer stem cells [1]: inhibited the expression of various gene sets characteristic of normal stem cells or cancer stem cells | OMP-LU45 lung tumor growth [2]: inhibited growth | RSPO3-induced β-catenin signaling ([3]; WNT3a 5 ng/ml + RSPO3 10 ng/ml, antibody 20 to 0.02 μg/ml, FIG. 3): reduced RSPO3-induced β-catenin signaling in a dose-dependent manner | OMP-LU25 lung tumor growth (OMP-LU25 lung tumor): inhibited growth

B2: h131R007: humanized 131R003 variant, IgG2; heavy chain variable region SEQ ID NO:44, light chain variable region SEQ ID NO:72 (antibody, V domains shown)
VH: QVQLVQSGAEVKKPGASVKVSCKASGYTFTDYSIHWVRQAPGQGLEWIGYIYPSNGDSGYNQKFKNRVTMTRDTSTSTAYMELSRLRSEDTAVYYCATYFANNFDYWGQGTTLTVSS
VL: B1 VL with S22T, N78T, H80N, E84A, A87V
modifications: Humanized 131R005/131R007/131R008/ 131R010/131R011 Heavy chain variable region; Humanized 131R005/131R007/131R008 Light chain variable region
blocking binding of RSPO3 to LGR5-expressing cells (binding of RSPO3 to LGR5): highly effective in blocking binding of RSPO3 to LGR5-expressing cells | Kd (human RSPO3): 0.654 nM | ability to inhibit β-catenin activity compared with 131R002 ([3]; WNT3a conditioned medium 5 ng/ml + human RSPO3 10 ng/ml, FIG. 8): greater ability to inhibit β-catenin activity than antibody 131R002
